# Assay results taken from US8748572B2, “RNase a peptides, fragments and uses thereof” (priority 2006, dated 2014).
# “Also recorded” adds a separate entry of the source. Marks after values point to notes of the source that are not given here.
# B1: rRNase A-1: recombinant carboxy-terminal FLAG-tagged Gallus gallus leukocyte RNase A-1, SEQ ID NO: 2, GenBank DQ395275 (protein, listed as Gallus gallus)
# chain: VPTYQDFLRTHVDFPKTSFPNIAAYCNVMMVRRGINVHGRCKSLNTFVHTDPRNLNTLCINQPNRALRTTQQQLPVTDCKLIRSHPTCSYTGNQFNHRVRVGCWGGLPVHLDGTFP
# modifications: C-terminal FLAG tag
# B2: rRNase A-2: recombinant carboxy-terminal FLAG-tagged Gallus gallus leukocyte RNase A-2, SEQ ID NO: 4, GenBank DQ395276 (protein, listed as Gallus gallus)
# chain: VPTYQDFLYKHMDFPKTSFPSNAAYCNVMMVRRGMTAHGRCKSFNTFVHTDPRNLNTLCINQPDQALRTTRRHFRITDCKLIRSHPTCRYSGNQFNRRVRVGCRGGLPVHLDGTSP
# modifications: C-terminal FLAG tag
# Legend:
# S. aureus 502A = assay: bactericidal colony-forming assay, S. aureus; assay type: cell-based, Staphylococcus aureus
# Method: (§1) FIGS. 5 A & B are graphs showing the bactericidal activity of rRNases A-1 and A-2. In panel (A) E. coli DH5α and in panel (B) S. aureus 502A were re-suspended in 100 mM sodium phosphate buffer, pH 7.4, and incubated with the indicated concentrations of chicken leukocyte RNase A-1 (open squares) and A-2 (closed circles) for 4 h at 37° C., plated on RNase-free LB agar, and grown overnight for colony counts.
# RNase A polypeptides and fragments according to the invention that have bactericidal activity are particularly preferred for use in the treatment methods of the invention. The bactericidal and bacteriostatic activity of a particular RNase A polypeptides or fragments can be assessed by known protocols, such as that described in the methods section and the following described protocol, herein referred to as “a standard bacterial colony formation assay.” Bactericidal assays are well-described in the art, and are performed as described previously, and as exemplified in Examples 3-6. Briefly, an aliquot from a single bacterial colony overnight culture grown in Luria-Beitani (LB) broth is diluted 1:100 in sodium phosphate, pH 7.4, collected by centrifugation, and resuspended in sodium phosphate, pH 7.4. […]
# Bactericidal assays were performed as described previously with modifications. […] All points were determined in triplicate.
# isoelectric point = assay type: physicochemical
# E. coli DH5α = assay: bactericidal colony-forming assay, E. coli; assay type: cell-based, Escherichia coli
# Method: as §1
# RNase A polypeptides and fragments according to the invention that have bactericidal activity are particularly preferred for use in the treatment methods of the invention. The bactericidal and bacteriostatic activity of a particular RNase A polypeptides or fragments can be assessed by known protocols, such as that described in the methods section and the following described protocol, herein referred to as “a standard bacterial colony formation assay.” Bactericidal assays are well-described in the art, and are performed as described previously, and as exemplified in Examples 3-6. Briefly, an aliquot from a single bacterial colony overnight culture grown in Luria-Beitani (LB) broth is diluted 1:100 in sodium phosphate, pH 7.4, collected by centrifugation, and resuspended in sodium phosphate, pH 7.4. An aliquot of bacteria in buffer are incubated for 4 hr at 37° C. with recombinant protein or peptide at concentrations indicated, or diluent control and were then diluted 10, 100, or 1000-fold prior to plating on LB agar for overnight growth for colony counts.
# Next, the bactericidal activity of chicken leukocyte RNases were examined using a colony-forming assay as previously described for eosinophil cationic protein [28]. […] E. coli was more susceptible to the bactericidal activity of leukocyte rRNase A-2 than was S. aureus, as 5 μM rRNase A-2 reduced the colony count of E. coli 10^7-fold, while reducing the colony count of S. aureus, only 100-fold. Recombinant RNase A-1 had no effect on colony number of E. coli or S. aureus concentrations up to and including […].
# Bactericidal assays were performed as described previously with modifications. Briefly, 100 microliters from a single bacterial colony overnight culture grown in Luria-Bertani (LB) broth was diluted 1:100 in 100 mM sodium phosphate, pH 7.4, collected by centrifugation, and resuspended in 1 ml sodium phosphate, pH 7.4. Ten microliters of bacteria in buffer are incubated for 4 hr at 37° C. with 10 microliters recombinant protein or peptide at concentrations indicated, or diluent control and were then diluted 10, 100, or 1000-fold prior to plating on LB agar for overnight growth for colony counts. All points were determined in triplicate.
# chicken aortic rings = assay: chick aortic ring assay (angiogenesis); assay type: cell-based; conditions: for blood vessel formation in aortic rings (in words) / Angiogenesis Scores: 2 μM recombinant RNase; for blood vessel formation in aortic rings (in words): ex vivo; for Angiogenesis Scores: 24 h, Mean ± SEM, 6 to 8 rings; for % change of angiogenesis score vs control: 2 μM, ([rRNase − control]×100/[control])
# Source text: The angiogenic activity of a particular RNase A polypeptide or fragment can be assessed by known protocols, such as that described in the methods section and the following described protocol, herein referred to as “a standard angiogenesis assay.” For example, the chick aortic ring sprouting assay, described in the art, can be a standard angiogenesis assay according to the invention. In the assay, aortic arches are dissected from 13-day-old chicken embryos, cleaned free of unwanted tissue and cut into 0.8 mm slices. Each ring is transferred into center of a well of 96-well plate, and ice-cold Matrigel (Becton Dickinson, Bedford, Mass.) is added immediately to imbed the ring. After solidification of the Matrigel, human endothelial-SFM basal growth medium (Invitrogen) is added to each well. After addition of recombinant leukocyte RNase A-1 or RNase A-2 or control preparation, the rings are incubated at 37° C. for 24 h. Vessels sprouted from rings are observed under microscopy, and assessed by blinded observers.
# Both chicken leukocyte RNases are structurally related to the mammalian angiogenin lineage, as discussed above and illustrated in FIG. 1. However, none of the non-mammalian ribonucleases evaluated thus far have been reported to have angiogenic activity. Here, the potential angiogenic activity of recombinant leukocyte RNases A-1 and A-2 was evaluated using the chick aortic ring assay as described in the literature. Briefly, aortic rings prepared from 13 day-old chick embryos were incubated with 2 μM recombinant leukocyte RNases (rRNases).
# Table 1 details the results of the chick aortic ring assay. Specifically, vessels sprouted from aortic rings treated with 100 μl of human endothelial-SFM basal growth medium and 2 μM recombinant leukocyte RNase were observed under microscopy and assessed by blinded observers, according previously published methods. Each of the groups (named Exp. 1 and Exp. 2) were composed of 6 to 8 rings. Percent (%) change is a value that represents ([rRNase A-1 or A-2−control]×100/[control]). *p<0.05, as determined using the Student's t-test.
# The chick aortic ring sprouting assay was performed as described previously with minor modifications. Aortic arches were dissected from 13-day-old chicken embryos, cleaned free of unwanted tissue and cut into 0.8 mm slices. Each ring was transferred into center of a well of 96-well plate. Ice-cold 10 μl of Matrigel (Becton Dickinson, Bedford, Mass.) were added immediately to imbed the ring. After the Matrigel was solidified, 100 μl of human endothelial-SFM basal growth medium (Invitrogen) was added to each well. After addition of recombinant leukocyte RNase A-1 or RNase A-2 or control preparation, the rings were incubated at 37° C. for 24 h. Vessels sprouted from rings were observed under microscopy, and assessed by blinded observers. Each groups composed of 6 to 8 rings.
Molecule,effect on colony number of S. aureus (S. aureus 502A; concentrations up to and including 5),isoelectric point (pI) (isoelectric point),"bactericidal activity against E. coli (in words), recombinant proteins (E. coli DH5α; 5 μM, 4 hrs)",effect on colony number of E. coli (E. coli DH5α; concentrations up to and including 5 μl %/1),blood vessel formation in aortic rings (in words) (chicken aortic rings),Angiogenesis Scores (chicken aortic rings; Exp. 1),% change of angiogenesis score vs control (chicken aortic rings; Exp. 1),Angiogenesis Scores (chicken aortic rings; Exp. 2),% change of angiogenesis score vs control (chicken aortic rings; Exp. 2),"reduction of colony count of S. aureus (S. aureus 502A; 5 μM, 4 h at 37° C.) [fold]","reduction of colony count of E. coli (E. coli DH5α; 5 μM, 4 h at 37° C.)","colony count of E. coli after incubation (E. coli DH5α; 5 μM, 4 hrs) [CFU/ml]"
B1,no effect,10.2,no impact on colony count,no effect,comparable to that in the control,0.38 ± 0.13 Arbitary Units,+2.7%,0.41 ± 0.06 Arbitary Units,+24%,–,–,–
B2,–,11.0,–,–,Prominent blood vessel formation; also recorded: has angiogenic activity ex vivo,0.68 ± 0.26* Arbitary Units,+84%,0.60 ± 0.14* Arbitary Units,+82%,100,10^7 fold,< 100
